Assay results taken from US20250368734A1 (ANTENGENE BIOLOGICS, published 2025).
Substitutions are numbered along the chain they refer to. Where two headings read alike, the source gives them in different places.

B1: 28H9C12 (antibody, V domains shown)
VH: EVQLVESGGGLVKPGGSLKLSCAASGFTFSDYGMHWVRQAPEKGLEWVAYISSGSSTIYYADTVKGRFTISRDNAKNTLFLQMTSLRSEDTAIYYCVRRPWYFDVWGTGTTVTVSS
VL: DVLMTQTPLSLPVSLGDQASISCRSSQSIVHSNGNTYLQWYLQKPGQSPKLLIYKVSNRFSGVPDRFSGSGSGTDFTLKISRLEAEDLGVYYCFQGSHVPFTFGSGTKLEIK
notes: Mouse monoclonal antibody from hybridoma subclone; also called 281H9C12
B2: 15D6G2 (antibody, V domains shown)
VH: EVQLVESGGDLVKPGGYLRLSCAASGFTFSSHGMSWVRQTPDKRLEWVATISSGGRNTYYPDSVKGRFTISRDNAKNILYLQMSSLKSEDTAMFYCTRHSGDAMDYWGQGTSVTVSS
VL: DILLTQSPAILSVSPGERVSFSCRASQSIGTNIHWYQQRTNGSPRLLIKYASESISGIPSRFSGSGSGTDFTLSINSVESEDIADYYCQQSKSWPTFGGGTKLEIK
notes: Mouse monoclonal antibody from hybridoma subclone
B3: 26E2H6 (antibody, V domains shown)
VH: EVQLVESGGDLVKPGGSLKLSCAASGFTFSSYGMSWVRQTPDKRLEWVATISSGGSYTYYPDSVKGRFTISRDNAKNTLYLQMSSLKSEDTAMYYCARHATDYWGQGTTLTVSS
VL: QIVLTQSPAIMSASPGEKVTMTCSASSSVSYMHWYQQKSGTSPKRWIYDTSKLASGVPARFSGSGSGTSYSLTISSMEAEDAATYYCQQWSSNPLTFGAGTKLELK
notes: as for B2
B4: 12G12C2 (antibody, V domains shown)
VH: QIQLVQSGPELKMPGETVKISCKASGYTFTTYGLSWVKQAPGKGLKWMGWINTFSGVPIYADDFKGRFAFSLETSASTAYLQINNLKNEDTATYFCARWGIRQRGDYWGQGATLTVSS
VL: B3 VL with M32L, A59V, G67E, S91T, L95P, A99G, L105I
notes: as for B2
B5: Bis-116F1G6 (bispecific antibody)
chain 1: EVQLQHSGPELVKPGASVKMSCKASGYTFTTYVMHWVKQKPGQGLEWIGYINPYNDGTKYNEKFKGKATLTSDKSSSTAYMELSSLTSEDSAVYYCARGGVRRYFDVWGAGTTVTVSS
chain 2: GGGGSGGGGSGGGGSEVQLVESGGGLVQPGRSLRLSCAASGFTFDNYAMHWVRQAPGKGLEWVSGISWNSGSIGYADSVKGRFTISRDNAKNSLYLQMNSLRAEDTALYYCAKDSRGYGDYSRGGAYWGQGTLVTVSSEIVMTQSPATLSVSPGERATLSCRASQSVSSNLAWYQQKPGQAPRLLIYGASTRATGIPARFSGSGSGTEFTLTISSLQSEDFAVYYCQQYNNWPWTFGQGTKVEIK
chain 3: DIQMTQSPSSLSASLGERVSLTCRASQDIGSNLNWLQQEPNGTIKRLIYATFTLDSGVPKRFSGSRSGSDYSLTISSLESEDFVDYYCLQYASFPYTFGGGTKLEIK
B6: 36A3G8 (antibody, V domains shown)
VH: QVQLQQSGAELARPGASVKMSCKASGYTFTTYTMHWIKQRPGQDLEWIGFINPSSGYTKYNQNFKDKATLTADKSSTTAYMQLNSLTSEDSAVYYCASPYGNIYFDVWGTGTTVTVSS
VL: DIVMTQSQKFMSTAVGDRVSITCKASQNVGTAVAWYQQKPGQSPKLLIYSASNRYTGVPDRFTGSGSGTDFTLTISNMQSEDLADYFCQQYSSYPLTFGAGTKLELK
notes: as for B2
B7: ATG596 (antibody, V domains shown)
VH: QVQLVQSGAEVKKPGASVKVSCKASGYSFTGYTMNWVRQAPGQGLEWMGLINPYNSDTNYAQKLQGRVTMTTDTSTSTAYMELRSLRSDDTAVYYCARVALRVALDYWGQGTLVTVSS
VL: DIQMTQSPSSLSASVGDRVTITCKASQNVATHVGWYQQKPGKAPKRLIYSASYRYSGVPSRFSGSGSGTEFTLTISNLQPEDFATYYCQQYNRYPYTFGQGTKLEIK
notes: Human IgG1; also called benchmark antibody ATG596; positive human IgG1 control antibody
B8: 20C4E1 (antibody, V domains shown)
VH: EVRLVESGGALVRPGGSLKLSCAASGFTFSDYGMHWVRQAPEKGLEWIAFISSVSFTIYYADTVKGRFTISRDNAKNTLFLQMTSLRSEDTALYYCTRLGPHWYFDVWGTGTTVTVSS
VL: DVVLTQTPLSLPVSLGDQASISCRSSQSLVYSNGNTYLHWFLQKPGQSPQLLIYKVSNRFSGVPDRFSGSGSGTDFTLKISRVEAEDLGVYFCSQSTPVPTFGGGTKLEIK
notes: as for B2

How the values were obtained:
human GPRC5D [1] = target: T1, human GPRC5D (human, UniProt Q9NZD1 1-345); assay: FACS, OPM-2 cells; also: test concentration or dose not given here
T1 construct: whole, on cells; also called hGPRC5D; G-protein coupled receptor family C group 5 member D
Outline: (§1)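 Subclone antibodies incubated with parental or GPRC5D-overexpressing HEK293T cells (human, cynomolgus, mouse) and OPM2 cells; bound antibody detected with fluorescent dye-conjugated secondary antibody. Median fluorescence intensity read by FACS.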

mouse GPRC5D [2] = target: T2, mouse GPRC5D (mouse, UniProt Q9JIL6 1-344); assay: FACS, HEK293T-mGPRC5D cells
T2 construct: whole, on cells; HEK293T-mGPRC5D cells; also called mGPRC5D; murine GPRC5D
T2 sequence (looked up): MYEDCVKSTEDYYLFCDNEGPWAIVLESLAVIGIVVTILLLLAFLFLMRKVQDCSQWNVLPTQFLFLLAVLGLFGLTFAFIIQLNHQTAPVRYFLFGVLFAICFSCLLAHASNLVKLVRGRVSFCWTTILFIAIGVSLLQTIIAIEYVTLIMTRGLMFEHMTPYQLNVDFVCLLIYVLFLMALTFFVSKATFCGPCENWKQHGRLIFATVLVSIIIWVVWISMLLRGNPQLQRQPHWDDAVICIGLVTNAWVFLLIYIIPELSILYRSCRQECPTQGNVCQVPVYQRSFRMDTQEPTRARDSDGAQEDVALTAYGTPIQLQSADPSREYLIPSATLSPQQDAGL
From the text: (§2) The subcloning plates were screened by Mirrorball assay and the subclones with good binding ability were expanded to 24-wells for confirmation tests. The specificity and cross-reactivity of these subclones were confirmed with FACS analysis. Briefly, parental HEK293T, HEK293T cells stably over-expressing human GPRC5D protein (i.e., HEK293T-hGPRC5D), HEK293T cells stably over-expressing cynomolgus monkey GPRC5D protein (i.e., HEK293T-cynoGPRC5D), HEK293T cells stably over-expressing mouse GPRC5D protein (i.e., HEK293T-mGPRC5D), and OPM2 cells were incubated with antibodies produced by each subclone, respectively. Fluorescent dye-conjugated secondary antibody was used to detect the binding of the primary antibody with the cells. Median fluorescence intensity (MFI) was measured by FACS analysis,
(§3) As a result, 21 antibodies were discovered with unique sequences showing positive binding with HEK293T-hGPRC5D and OPM2 cells. Among which, some clones could also bind with HEK293T-cynoGPRC5D and/or HEK293T-mGPRC5D. […] ATG596 was a positive human IgG1 control antibody which comprises a VH region having an amino acid sequence as set forth in SEQ ID NO: 199, and a VL region having an amino acid sequence as set forth in SEQ ID NO: 200.

human GPRC5D [3] = target: T1, human GPRC5D; assay: FACS, HEK293T-hGPRC5D cells; also: test concentration or dose not given here
Outline: as §1

cynomolgus monkey GPRC5D [4] = target: T3, cynomolgus monkey GPRC5D (cynomolgus monkey); assay: FACS, HEK293T-cynoGPRC5D cells
T3 construct: whole, on cells; HEK293T-cynoGPRC5D cells; also called cynoGPRC5D
From the text: as §2, §3

human GPRC5D [5] = target: T1, human GPRC5D; assay: cell-based or functional assay
cynomolgus monkey GPRC5D [6] = target: T3, cynomolgus monkey GPRC5D; assay: FACS, HEK293T-cynoGPRC5D cells; remark: listed apart in the source
mouse GPRC5D [7] = target: T2, mouse GPRC5D; assay: FACS, HEK293T-mGPRC5D cells; remark: listed apart in the source
From the text: as §2, §3

cynomolgus monkey GPRC5D [8] = target: T3, cynomolgus monkey GPRC5D; assay: FACS, HEK293T-cynoGPRC5D cells; remark: listed apart in the source
Outline: as §1

mouse GPRC5D [9] = target: T2, mouse GPRC5D; assay: FACS, HEK293T-mGPRC5D cells; remark: listed apart in the source

T1 sequence (Q9NZD1 whole entry): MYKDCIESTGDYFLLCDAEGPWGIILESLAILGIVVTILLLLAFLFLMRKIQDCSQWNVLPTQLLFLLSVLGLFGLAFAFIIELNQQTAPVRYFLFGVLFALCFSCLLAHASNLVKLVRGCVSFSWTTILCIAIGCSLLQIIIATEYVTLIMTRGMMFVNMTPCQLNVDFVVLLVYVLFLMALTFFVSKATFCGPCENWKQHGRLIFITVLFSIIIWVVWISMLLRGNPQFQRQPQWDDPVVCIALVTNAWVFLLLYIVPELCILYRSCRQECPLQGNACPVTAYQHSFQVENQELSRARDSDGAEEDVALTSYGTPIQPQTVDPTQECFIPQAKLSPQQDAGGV

| Binder | % Positive (human GPRC5D [1]) | MFI (human GPRC5D [1]) | % Positive (mouse GPRC5D [2]) | MFI (mouse GPRC5D [2]) | % Positive (human GPRC5D [3]) | MFI (human GPRC5D [3]) | % Positive (cynomolgus monkey GPRC5D [4]) | MFI (cynomolgus monkey GPRC5D [4]) | EC50 (human GPRC5D [5]) | Top killing % (human GPRC5D [5]) | EC50 (cynomolgus monkey GPRC5D [6]) | Top (cynomolgus monkey GPRC5D [6]) | % Positive (mouse GPRC5D [7]) | MFI (mouse GPRC5D [7]) | % Positive (cynomolgus monkey GPRC5D [8]) | MFI (cynomolgus monkey GPRC5D [8]) | EC50 (mouse GPRC5D [9]) | Top (mouse GPRC5D [9]) |
| --- | --- | --- | --- | --- | --- | --- | --- | --- | --- | --- | --- | --- | --- | --- | --- | --- | --- | --- |
| B1 | 97.9% | 1120 | 1.6% | 121 | 99.6% | 25100 | 99.8% | 18000 |  |  |  |  |  |  |  |  |  |  |
| B2 | 99.4% | 1740 | 14.6% | 150 | 99.5% | 32800 | 99.7% | 7760 |  |  |  |  |  |  |  |  |  |  |
| B3 | 97.9% | 1150 | 68.4% | 370 | 99.8% | 27200 | 1% | 116 |  |  |  |  |  |  |  |  |  |  |
| B4 | 98.4% | 1070 | 99% | 7080 | 98.7% | 32100 | 96.2% | 24700 |  |  |  |  |  |  |  |  |  |  |
| B5 |  |  |  |  |  |  |  |  | 1.66 nM | 71.8% |  |  |  |  |  |  |  |  |
| B6 | 96.3% | 791 |  |  | 99.3% | 31800 | 96.6% | 3110 |  |  |  |  |  |  |  |  |  |  |
| B7 |  |  | 98.2% | 14600 |  |  | 98.5% | 7400 |  |  | 26.6 nM | 22500 | 97.3% | 12400 | 98.6% | 6580 | 25.5 nM | 45600 |
| B8 | 99.5% | 2020 | 82.7% | 592 | 99.9% | 38900 | 99.2% | 31300 |  |  |  |  |  |  |  |  |  |  |
